Source: patent US20250339531A1, “DUX4 POLYPEPTIDES AND NUCLEIC ACIDS FOR TREATING INFLAMMATORY AND AUTOIMMUNE CONDITIONS” (Fred Hutchinson Cancer Center, priority 2021, published 2025)

B1: TRIM28 (protein)
chain: AASAAAASAAAASAASGSPGPGEGSAGGEKRSTAPSAAASASASAAASSPAGGGAEALELLEHCGVCRERLRPEREPRLLPCLHSACSACLGPAAPAAANSSGDGGAAGDGTVVDCPVCKQQCFSKDIVENYFMRDSGSKAATDAQDANQCCTSCEDNAPATSYCVECSEPLCETCVEAHQRVKYTKDHTVRSTGPAKSRDGERTVYCNVHKHEPLVLFCESCDTLTCRDCQLNAHKDHQYQFLEDAVRNQRKLLASLVKRLGDKHATLQKSTKEVRSSIRQVSDVQKRVQVDVKMAILQIMKELNKRGRVLVNDAQKVTEGQQERLERQHWTMTKIQKHQEHILRFASWALESDNNTALLLSKKLIYFQLHRALKMIVDPVEPHGEMKFQWDLNAWTKSAEAFGKIVAERPGTNSTGPAPMAPPRAPGPLSKQGSGSSQPMEVQEGYGFGSGDDPYSSAEPHVSGVKRSRSGEGEVSGLMRKVPRVSLERLDLDLTADSQPPVFKVFPGSTTEDYNLIVIERGAAAAATGQPGTAPAGTPGAPPLAGMAIVKEEETEAAIGAPPTATEGPETKPVLMALAEGPGAEGPRLASPSGSTSSGLEVVAPEGTSAPGGGPGTLDDSATICRVCQKPGDLVMCNQCEFCFHLDCHLPALQDVPGEEWSCSLCHVLPDLKEEDGSLSLDGADSTGVVAKLSPANQRKCERVLLALFCHEPCRPLHQLATDSTFSLDQPGGTLDLTLIRARLQEKLSPPYSSPQEFAQDVGRMFKQFNKLTEDKADVQSIIGLQRFFETRMNEAFGDTKFSAVLVEPPPMSLPGAGLSSQELSGGPGDGP
B2: G3BP2 (protein)
chain: VMEKPSPLLVGREFVRQYYTLLNKAPEYLHRFYGRNSSYVHGGVDASGKPQEAVYGQNDIHHKVLSLNFSECHTKIRHVDAHATLSDGVVVQVMGLLSNSGQPERKFMQTFVLAPEGSVPNKFYVHNDMFRYEDEVFGDSEPELDEESEDEVEEEQEERQPSPEPVQENANSGYYEAHPVTNGIEEPLEESSHEPEPEPESETKTEELKPQVEEKNLEELEEKSTTPPPAEPVSLPQEPPKAFSWASVTSKNLPPSGTVSSSGIPPHVKAPVSQPRVEAKPEVQSQPPRVREQRPRERPGFPPRGPRPGRGDMEQNDSDNRRIIRYPDSHQLFVGNLPHDIDENELKEFFMSFGNVVELRINTKGVGGKLPNFGFVVFDDSEPVQRILIAKPIMFRGEVRLNVEEKKTRAARERETRGGGDDRRDIRRNDRGPGGPRGIVGGGMMRDRDGRGPPPRGGMAQKLGSGRGTGQMEGRFTGQRR
B3: NONO (protein, UniProt Q15233 1-471, looked up)
Non-POU domain-containing …: MQSNKTFNLEKQNHTPRKHHQHHHQQQHHQQQQQQPPPPPIPANGQQASSQNEGLTIDLKNFRKPGEKTFTQRSRLFVGNLPPDITEEEMRKLFEKYGKAGEVFIHKDKGFGFIRLETRTLAEIAKVELDNMPLRGKQLRVRFACHSASLTVRNLPQYVSNELLEEAFSVFGQVERAVVIVDDRGRPSGKGIVEFSGKPAARKALDRCSEGSFLLTTFPRPVTVEPMDQLDDEEGLPEKLVIKNQQFHKEREQPPRFAQPGSFEYEYAMRWKALIEMEKQQQDQVDRNIKEAREKLEMEMEAARHEHQVMLMRQDLMRRQEELRRMEELHNQEVQKRKQLELRQEEERRRREEEMRRQQEEMMRRQQEGFKGTFPDAREQEIRMGQMAMGGAMGINNRGAMPPAPVPAGTPAPPGPATMMPDGTLGLTPPTTERFGQAATMEGIGAIGGTPPAFNRAAPGAEFAPNKRRRY
B4: DDX3X (protein)
chain: SHVAVENALGLDQQFAGLDLNSSDNQSGGSTASKGRYIPPHLRNREATKGFYDKDSSGWSSSKDKDAYSSFGSRSDSRGKSSFFSDRGSGSRGRFDDRGRSDYDGIGSRGDRSGFGKFERGGNSRWCDKSDEDDWSKPLPPSERLEQELFSGGNTGINFEKYDDIPVEATGNNCPPHIESFSDVEMGEIIMGNIELTRYTRPTPVQKHAIPIIKEKRDLMACAQTGSGKTAAFLLPILSQIYSDGPGEALRAMKENGRYGRRKQYPISLVLAPTRELAVQIYEEARKFSYRSRVRPCVVYGGADIGQQIRDLERGCHLLVATPGRLVDMMERGKIGLDFCKYLVLDEADRMLDMGFEPQIRRIVEQDTMPPKGVRHTMMFSATFPKEIQMLARDFLDEYIFLAVGRVGSTSENITQKVVWVEESDKRSFLLDLLNATGKDSLTLVFVETKKGADSLEDFLYHEGYACTSIHGDRSQRDREEALHQFRSGKSPILVATAVAARGLDISNVKHVINFDLPSDIEEYVHRIGRTGRVGNLGLATSFFNERNINITKDLLDLLVEAKQEVPSWLENMAYEHHYKGSSRGRSKSSRFSGGFGARDYRQSSGASSSSFSSSRASSSRSGGGGHGSSRGFGGGGYGGFYNSDGYGGNYNSQGVDWWGN
B5: KANK2 (protein)
chain: MAQVLHVPAPFPGTPGPASPPAFPAKDPDPPYSVETPYGYRLDLDFLKYVDDIEKGHTLRRVAVQRRPRLSSLPRGPGSWWTSTESLCSNASGDSRHSAYSYCGRGFYPQYGALETRGGFNPRVERTLLDARRRLEDQAATPTGLGSLTPSAAGSTASLVGVGLPPPTPRSSGLSTPVPPSAGHLAHVREQMAGALRKLRQLEEQVKLIPVLQVKLSVLQEEKRQLTVQLKSQKFLGHPTAGRGRSELCLDLPDPPEDPVALETRSVGTWVRERDLGMPDGEAALAAKVAVLETQLKKALQELQAAQARQADPQPQAWPPPDSPVRVDTVRVVEGPREVEVVASTAAGAPAQRAQSLEPYGTGLRALAMPGRPESPPVFRSQEVVETMCPVPAAATSNVHMVKKISITERSCDGAAGLPEVPAESSSSPPGSEVASLTQPEKSTGRVPTQEPTHREPTRQAASQESEEAGGTGGPPAGVRSIMKRKEEVADPTAHRRSLQFVGVNGGYESSSEDSSTAENISDNDSTENEAPEPRERVPSVAEAPQLRPAGTAAAKTSRQECQLSRESQHIPTAEGASGSNTEEEIRMELSPDLISACLALEKYLDNPNALTERELKVAYTTVLQEWLRLACRSDAHPELVRRHLVTFRAMSARLLDYVVNIADSNGNTALHYSVSHANFPVVQQLLDSGVCKVDKQNRAGYSPIMLTALATLKTQDDIETVLQLFRLGNINAKASQAGQTALMLAVSHGRVDVVKALLACEADVNVQDDDGSTALMCACEHGHKEIAGLLLAVPSCDISLTDRDGSTALMVALDAGQSEIASMLYSRMNIKCSFAPMSDDESPTSSSAEE
B6: NAP1L1 (protein)
chain: ADIDNKEQSELDQDLDDVEEVEEEETGEETKLKARQLTVQMMQNPQILAALQERLDGLVETPTGYIESLPRVVKRRVNALKNLQVKCAQIEAKFYEEVHDLERKYAVLYQPLFDKRFEIINAIYEPTEEECEWKPDEEDEISEELKEKAKIEDEKKDEEKEDPKGIPEFWLTVFKNVDLLSDMVQEHDEPILKHLKDIKVKFSDAGQPMSFVLEFHFEPNEYFTNEVLTKTYRMRSEPDDSDPFSFDGPEIMGCTGCQIDWKKGKNVTLKTIKKKQKHKGRGTVRTVTKTVSNDSFFNFFAPPEVPESGDLDDDAEAILAADFEIGHFLRERIIPRSVLYFTGEAIEDDDDDYDEEGEEADEEGEEEGDEENDPDYDPKKDQNPAEC
B7: CAPRIN1 (protein)
chain: PSATSHSGSGSKSSGPPPPSGSSGSEAAAGAGAAAPASQHPATGTGAVQTEAMKQILGVIDKKLRNLEKKKGKLDDYQERMNKGERLNQDQLDAVSKYQEVTNNLEFAKELQRSFMALSQDIQKTIKKTARREQLMREEAEQKRLKTVLELQYVLDKLGDDEVRTDLKQGLNGVPILSEEELSLLDEFYKLVDPERDMSLRLNEQYEHASIHLWDLLEGKEKPVCGTTYKVLKEIVERVFQSNYFDSTHNHQNGLCEEEEAASAPAVEDQVPEAEPEPAEEYTEQSEVESTEYVNRQFMAETQFTSGEKEQVDEWTVETVEVVNSLQQQPQAASPSVPEPHSLTPVAQADPLVRRQRVQDLMAQMQGPYNFIQDSMLDFENQTLDPAIVSAQPMNPTQNMDMPQLVCPPVHSESRLAQPNQVPVQPEATQVPLVSSTSEGYTASQPLYQPSHATEQRPQKEPIDQIQATISLNTDQTTASSSLPAASQPQVFQAGTSKPLHSSGINVNAAPFQSMQTVFNMNAPVPPVNEPETLKQQNQYQASYNQSFSSQPHQVEQTELQQEQLQTVVGTYHGSPDQSHQVTGNHQQPPQQNTGFPRSNQPYYNSRGVSRGGSRGARGLMNGYRGPANGFRGGYDGYRPSFSNTPNSGYTQSQFSAPRDYSGYQRDGYQQNFKRGSGQSGPRGAPRGRGGPPRPNRGMPQMNTQQVN
B8: RNH1 (protein)
chain: SLDIQSLDIQCEELSDARWAELLPLLQQCQVVRLDDCGLTEARCKDISSALRVNPALAELNLRSNELGDVGVHCVLQGLQTPSCKIQKLSLQNCCLTGAGCGVLSSTLRTLPTLQELHLSDNLLGDAGLQLLCEGLLDPQCRLEKLQLEYCSLSAASCEPLASVLRAKPDFKELTVSNNDINEAGVRVLCQGLKDSPCQLEALKLESCGVTSDNCRDLCGIVASKASLRELALGSNKLGDVGMAELCPGLLHPSSRLRTLWIWECGITAKGCGDLCRVLRAKESLKELSLAGNELGDEGARLLCETLLEPGCQLESLWVKSCSFTAACCSHFSSVLAQNRFLLELQISNNRLEDAGVRELCQGLGQPGSVLRVLWLADCDVSDSSCSSLAATLLANHSLRELDLSNNCLGDAGILQLVESVRQPGCLLEQLVLYDIYWSEEMEDRLQALEKDKPSLRVIS

System: proteins that co-immunoprecipitated with DUX4-CTD constructs expressed in MB135 myoblasts
Test: LC-MS of proteins co-immunoprecipitated with DUX4-CTD (Table 1) and western validation
Assay type: binding, human
Parameters: key to 4. mL1dL2 + Dox + IFNG / 4. + IFNG mix / 4. longCTD + Dox + IFNG / 3. + IFNg + Dox longCTD / 3. + Dox longCTD / 3. + IFNG longCTD: peptide-spectrum matches (PSMs) per protein
Settings: kind of count not given; for 4. + IFNG mix: LC-MS value per protein co-immunoprecipitated from MB135 myoblasts, + IFNG mix sample (no Dox); for 4. mL1dL2 + Dox + IFNG: LC-MS value per protein co-immunoprecipitated with DUX4-CTD construct mL1dL2 in MB135 myoblasts
How it was run: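 Two independent experiments compared uninduced, doxycycline and doxycycline+IFNG MB135iDUX4-CTD (plus MB135iDUX4mL1dL2) myoblasts. Anti-FLAG pulldowns (3 h, 4 °C) were eluted in LDS buffer for western validation or with FLAG peptide for trypsin digestion and Orbitrap LC-MS; hits needed ≥2 PSMs in both experiments, ranked by total PSMs.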

Row | Molecule | 4. + IFNG mix | 4. mL1dL2 + Dox + IFNG
1 | B1 | 1 | 8
2 | B2 | – | 1
3 | B3 | 1 | –
4 | B4 | 1 | 2
5 | B5 | – | 1
6 | B6 | – | 2
7 | B7 | – | 1
8 | B8 | – | 4
